This note sets out measurements from the RNAGym collection of RNA variant scans (doi:10.1073/pnas.2313332121).

Sequences and labels used below:
B1: TPR t1 (parent)
chain: GACCAAUCUGCCCUCAGAGCUCGAGAACAUCUUCGGAUGCAGAGGAGGCAGGCUUCGGUGGCGCGAUAGCGCCAACGUCCUCAACCUCCAAUGCAUCCCACCACAUGAUGAUGCCUGAAGAGCCUUGGUUUUUUG

The variants in this data set derive from B1. Nature of the data set: polymerase ribozyme fitness, log enrichment relative to wild type (log ratio); higher = more active; in vitro selection for triplet polymerase activity. In outline: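 PCR was used to build mutant libraries for each subunit of a heterodimeric triplet polymerase ribozyme, which were then transcribed. A single in vitro selection round, in triplicate, used a frozen incubation at −7 °C and recovered extended constructs by gel excision, streptavidin beads and RT-PCR. Fitness is the logarithm of genotype enrichment relative to wild-type enrichment, averaged over replicates with inverse-variance weights. The logarithm is base 2, and after Illumina sequencing only genotypes with ≥10 input reads and ≥1 read per output were kept.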
GACCAAUCUGCGCUCAGAGCUCGAGAACAUCUUCGGAUGCAGAGGAGGCAGGCUUCGGUGGCGCGAUAGCGCCAACGUCCUCAACCUCCAAUGCAUCCCACCACAUGAUGAUGCCUGAAGAACCUUGGUUUUUUG [C12G G122A]: the “polymerase ribozyme fitness (log ratio)” value is -0.383.
With GACCAAUCUGCGCUCAGAGCUCGAGAACAUCUUCGGAUGCAGAGGAGGCAGGCUUCGGUGGCGCGAUAGCGCCAACGUCCUCAACCUCCAAUGCAUCCCACCACAUGAUAAUGCCUGAAGAGCCUUGGUUUUUUG [C12G G110A] the figure was -0.401; with GACCAAUCUGCGCUCAGAGCUCGAGAACAUCUUCGGAUGCAGAGGAGGCAGGCUUCGGUGGCGCGAUAGCGCCAACGUCCUCAACCUCCAAUGCAUCCCACCACAUGAUUAUGCCUGAAGAGCCUUGGUUUUUUG [C12G G110U], -1.12.
For GACCAAUCUGCGCUCAGAGCUCGAGAACAUCUUCGGAUGCAGAGGAGGCAGGCUUCGGUGGCGCGAUAGCGCCAACGUCCUCAACCUCCAAUGCAUCCCACCACAUGAUCAUGCCUGAAGAGCCUUGGUUUUUUG [C12G G110C], the “polymerase ribozyme fitness (log ratio)” value is -3.59.
Consider GACCAAUCUGCGCUCAGAGCUCGAGAACAUCUUCGGAUGCAGAGGAGGCAGGCUUCGGUGGCGCGAUAGCUCCAACAUCCUCAACCUCCAAUGCAUCCCACCACAUGAUGAUGCCUGAAGAGCCUUGGUUUUUUG [C12G G71U G77A], for which the “polymerase ribozyme fitness (log ratio)” value was -0.248.
With GACCAAUCUGCGCUCAGAGCUCGAGAACAUCUUCGGAUGCAGAGGAGGCAGGCUUCGGUGGCGCGAUAGCGCCAACGUCCUCAACCUCCAAUGCAUCCCACCACAUGAUGAUGCCUGAAGAGCCUUGAUUUUUUG [C12G G128A], the “polymerase ribozyme fitness (log ratio)” value was -1.65.
For the variant GACCAAUCUGCGCUCAGAGCUCGAGAACAUCUUCGGAUGCAGAGGAGGCAGGCUUCGGUGGCCCGAUAGCGCCAACGUCCUCAACCUCCAAUGCAUCCCACCACAUGAUGAUGCCUGAAGAGCCUUGGUUUUUUG [C12G G63C], the “polymerase ribozyme fitness (log ratio)” value is -1.09.
The result for GACCAAUCUGCGCUCAGAGCUCGAGAACAUCUUCGGAUGCAGAGGAGGCAGGCUUCGGUGGCACGAUAGCGCCAACGUCCUCAACCUCCAAUGCAUCCCACCACAUGAUGAUGCCUGAAGAGCCUUGGUUUUUUG [C12G G63A] reads -0.827; that for GACCAAUCUGCGCUCAGAGCUCGAGAACAUCUUCGGAUGCAGAGGAGGCAGGCUUCGGUGGCGCGAUACCGCCAACGUCCUUAACCUCCAAUGCAUCUCACCACAUGAUGAUGCCUGAGGAGCCUUGGUUUUUUG [C12G G69C C82U C98U A119G], -0.598; that for GACCAAUCUGCGCUCAGAGCUCGAGAACAUCUUCGGAUGCAGAGGAGGCAGGCUUCGGUGGCUCGUUAGCGCCAACGUCCUCAACCUCCAAUGCAUCCCACCACAUGAUGAUGCCUGAAUAGCCUUUGUUUUUUG [C12G G63U A66U G120U G127U], -0.34.
With GACCAAUCUGCGCUCAGAGCUCGAGAACAUCUUCGGAUGCAGAGGAGGCAGGCUUCGGUUCCGCGAUAGCGCCAACGUCCUCAACCUACAAUGCAUCCCACCACAUGAUGAAGCCUGAGGAGCCUUGGUUUUUUG [C12G G60U G61C C88A U112A A119G] the figure was -3.63; with GACCAAUCUGCGCUCAGAGCUCGAGAACAUCUUCGGAUGCAGAGGAGGCAGGCUUCGGUGGCGCGAUAGCACCAACGUCCUCAACCUCCAAUGCAUCCCACCACAUGAUGAUGCCUGAAGAGCCUUGGUUUUUUG [C12G G71A], 0.0302.
For the variant GACCAAUCUGCGCUCAGAGCUCGAGAACAUCUUCGGAUGCAGAGGAGGCAGGCUUCGGUGGCGCGAUAGCGCCAACGUCCUCAACCUCCAAUGCAUCCCACCACAUGAUGAUGCCUGAAUAGCCUUUGUUUUUUG [C12G G120U G127U], the “polymerase ribozyme fitness (log ratio)” value turned out to be 1.47.
As to GACCAAUCUGCGCUCAGAGCUCGAGAACAUCUUCGGAUGCAGAGGAGGCAGGCUUCGGUGGCGCGAUAUCGCCAACGUCCUCAACCUCCAAUGCAUCCCACCACAUGAUGAUGCCUGAAGAGCCUUGGUUUUUUG [C12G G69U], the “polymerase ribozyme fitness (log ratio)” value is 0.711.
With GACCAAUCUGCGCUCAGAGCUCGAGAACAUCUUCGGAUGCAGAGGAGGCAGGCUUCGGUGGCGCGAUAGCGCCAACGUCCUCAACCUCCAAUGCAUCCCACCACAUGAUGAUGCCUUAAGAGCCUUGGUUUUUUG [C12G G117U] the figure was -1.22.
With GACCAAUCUGCGCUCAGAGCUCGAGAACAUCUUCGGAUGCAGAGGAGGCAGGCUUCGGUGGCGCGAUAGCGCCAACGUCCUCAACCUCCAAUGCAUCCCACCACAUUAUGAUGCCUGAAGAGCCUUGGUUUUUUG [C12G G107U] the figure was -5.64; with GACCAAUCUGCGCUCAGAGCUCGAGAACAUCUUCGGAUGCAGAGGAGGCAGUGUUCGGUUGCGCGAUAGCGCCAACGUCCUCAACCUCCAAUGCAUCCCACCACAUGAUGAUGCCUGAAGAGCCUUGGUUUUUUG [C12G G52U C53G G60U], -0.409; with GACCAAUCUGCGCUCAGAGCUCGAGAACAUCUUCGGAUGCAGAGGAGGCAGGCUUCGGUGGCACGAUAGCGCCAACGUCCUCAACCUCCAAUGCAUCCCACCACAUGAUGAUGCGUUAAGAGCCUUGGUUUUUUG [C12G G63A C115G G117U], -4.35.
With GACCAAUCUGCGCUCAGAGCUCGAGAACAUCUUCGGAUGCAGAGGAGGCAGGCUUCGGUGACGCGAUAGCGCCAACGUCCUCAACCUCCAAUGCAUCCCACCACAUGAUGAUGCCUGAAGAGCCUUGGUUUUUUG [C12G G61A] the figure was 0.388; with GACCAAUCUGCGCUCAGAGCUCGAGAACAUCUUCGGAUGCAGAGGAGGCAGGCUUCGGUGUCGCGAUAGCGCCAACGUCCUCAACCUCCAAUGCAUCCCACCACAUGAUGAUGCCUGAAGAGCCUUGGUUUUUUG [C12G G61U], 0.811.
As for GACCAAUCUGCGCUCAGAGCUCGAGAACAUCUUCGGAUGCAGAGGAGGCAGGCUUCCGUGGCGCGAUAGCGCCAACGUCCUCAACCUCCAAUGCAUCCCACCACAUGAUGAUGCCUGAAGAGCCUUGGUUUUUUG [C12G G57C], the “polymerase ribozyme fitness (log ratio)” value is -0.0296.
